From the supplement of paper PMC9112550, “Optimization of the antimicrobial peptide Bac7 by deep mutational scanning” (BMC Biology, 2022)

Tested on: Escherichia coli TOP10
Test: shrunken log2 fold change of peptide-encoding DNA abundance (4.5 h post-induction vs induction); higher = less antimicrobial activity (less host growth inhibition)
Settings: time post-induction: 4.5 h; library: site-saturation at positions 5, 18, 19, 20
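Also: peptides expressed intracellularly from a pBAD plasmid library in pooled LB shake-flask culture, induced with 0.3% L-arabinose, DNA abundance read by NGS, three biological replicates, DESeq2 with apeglm shrinkage.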

Sequence | shrunken log2 fold change
RRIRWRPPRLPRPRPRPYDYPRP | -0.262
RRIRWRPPRLPRPRPRPFGPPRP | 0.0591
RRIRERPPRLPRPRPRPNVEPRP | 0.0609
RRIRSRPPRLPRPRPRPLNCPRP | -0.374
RRIRWRPPRLPRPRPRPSHVPRP | -0.167
RRIRKRPPRLPRPRPRPQPWPRP | 0.805
RRIRCRPPRLPRPRPRPLKQPRP | -0.151
RRIRLRPPRLPRPRPRPKIQPRP | -0.131
RRIRRRPPRLPRPRPRPEVRPRP | 0.176
RRIRSRPPRLPRPRPRPCYYPRP | -0.571
RRIRMRPPRLPRPRPRPERLPRP | 0.442
RRIRDRPPRLPRPRPRPDYKPRP | 0.00454
RRIRMRPPRLPRPRPRPYMGPRP | -0.0411
RRIRWRPPRLPRPRPRPGWYPRP | -0.0191
RRIRKRPPRLPRPRPRPHCYPRP | -0.605
RRIRLRPPRLPRPRPRPAPYPRP | 0.0426
RRIRDRPPRLPRPRPRPRSLPRP | -0.0214
RRIRARPPRLPRPRPRPHVMPRP | -0.0593
RRIRLRPPRLPRPRPRPLAHPRP | -0.174
RRIRPRPPRLPRPRPRPLNKPRP | -0.55
RRIRDRPPRLPRPRPRPKNAPRP | -0.0796
RRIRTRPPRLPRPRPRPVQAPRP | 0.0641
RRIRTRPPRLPRPRPRPYIMPRP | -0.753
RRIRNRPPRLPRPRPRPLNDPRP | -0.0316
RRIRCRPPRLPRPRPRPWWMPRP | -0.0465

Sequence | shrunken log2 fold change
RRIRMRPPRLPRPRPRPNGEPRP | 0.278
RRIRIRPPRLPRPRPRPLHKPRP | -0.165
RRIRPRPPRLPRPRPRPENFPRP | 0.0102
RRIRQRPPRLPRPRPRPFNHPRP | 0.0419
RRIRKRPPRLPRPRPRPSIDPRP | 0.175
RRIRVRPPRLPRPRPRPFACPRP | -0.395
RRIRCRPPRLPRPRPRPSTCPRP | -0.355
RRIRPRPPRLPRPRPRPTWFPRP | 0.0698
RRIRQRPPRLPRPRPRPRGSPRP | 0.0908
RRIRTRPPRLPRPRPRPQYQPRP | -0.502
RRIRRRPPRLPRPRPRPMYKPRP | -0.0524
RRIRSRPPRLPRPRPRPVHWPRP | 0.138
RRIRKRPPRLPRPRPRPKRMPRP | 0.296
RRIRNRPPRLPRPRPRPAPKPRP | 0.377
RRIRMRPPRLPRPRPRPIMLPRP | -0.351
RRIRKRPPRLPRPRPRPPQKPRP | 0.682
RRIRGRPPRLPRPRPRPKVNPRP | 0.236
RRIRDRPPRLPRPRPRPQQFPRP | 0.251
RRIRPRPPRLPRPRPRPKAYPRP | -0.029
RRIRWRPPRLPRPRPRPDIPPRP | -0.367
RRIRGRPPRLPRPRPRPEKTPRP | -0.0522
RRIRCRPPRLPRPRPRPFCAPRP | -0.00432
RRIRPRPPRLPRPRPRPRWPPRP | 0.616
RRIRFRPPRLPRPRPRPYSPPRP | -0.324
RRIRHRPPRLPRPRPRPRCEPRP | 0.149

Sequence | shrunken log2 fold change
RRIRTRPPRLPRPRPRPWGHPRP | -0.066
RRIRQRPPRLPRPRPRPKSWPRP | 0.19
RRIRGRPPRLPRPRPRPYVHPRP | -0.142
RRIRLRPPRLPRPRPRPEVFPRP | 0.0607
RRIRVRPPRLPRPRPRPPIQPRP | -0.245
RRIRPRPPRLPRPRPRPEALPRP | 0.439
RRIRERPPRLPRPRPRPPVIPRP | -0.257
RRIRCRPPRLPRPRPRPLYWPRP | -0.201
RRIRLRPPRLPRPRPRPTMHPRP | 0.0766
RRIRRRPPRLPRPRPRPDEKPRP | 0.135
RRIRGRPPRLPRPRPRPKPCPRP | 0.422
RRIRLRPPRLPRPRPRPLRPPRP | 0.525
RRIRARPPRLPRPRPRPIMCPRP | -0.0139
RRIRIRPPRLPRPRPRPWWKPRP | -0.102
RRIRDRPPRLPRPRPRPIGFPRP | 0.0229
RRIRHRPPRLPRPRPRPILFPRP | -0.148
RRIRVRPPRLPRPRPRPNKNPRP | 0.0192
RRIRFRPPRLPRPRPRPDYNPRP | -0.422
RRIRCRPPRLPRPRPRPLIGPRP | -0.0236
RRIRQRPPRLPRPRPRPINMPRP | -0.28
RRIRERPPRLPRPRPRPCDRPRP | -0.187
RRIRMRPPRLPRPRPRPQHMPRP | -0.355
RRIRYRPPRLPRPRPRPIWTPRP | 0.066
RRIRRRPPRLPRPRPRPAQVPRP | -0.0303
RRIRDRPPRLPRPRPRPNIVPRP | -0.0381

Sequence | shrunken log2 fold change
RRIRNRPPRLPRPRPRPVFCPRP | 0.36
RRIRLRPPRLPRPRPRPLWIPRP | -0.399
RRIRWRPPRLPRPRPRPMISPRP | 0.248
RRIRGRPPRLPRPRPRPEINPRP | 0.797
RRIRIRPPRLPRPRPRPELHPRP | -0.2
RRIRWRPPRLPRPRPRPNFYPRP | -0.232
RRIRNRPPRLPRPRPRPPQGPRP | 0.192
RRIRMRPPRLPRPRPRPKPGPRP | 1.31
RRIRPRPPRLPRPRPRPMCCPRP | -0.0731
RRIRYRPPRLPRPRPRPFVQPRP | -0.0236
RRIRLRPPRLPRPRPRPMSDPRP | 0.0343
RRIRVRPPRLPRPRPRPLQCPRP | -0.371
RRIRFRPPRLPRPRPRPWSVPRP | -0.0111
RRIRCRPPRLPRPRPRPWTGPRP | -0.422
RRIRLRPPRLPRPRPRPTTVPRP | -0.175
RRIRARPPRLPRPRPRPISQPRP | 0.177
RRIRCRPPRLPRPRPRPHTPPRP | 0.0337
RRIRRRPPRLPRPRPRPNDTPRP | -0.115
RRIRKRPPRLPRPRPRPFSWPRP | 0.0937
RRIRKRPPRLPRPRPRPFGYPRP | -0.0856
RRIRNRPPRLPRPRPRPLFRPRP | -0.266
RRIRFRPPRLPRPRPRPNFCPRP | 0.0651
RRIRNRPPRLPRPRPRPGRFPRP | 0.327
RRIRQRPPRLPRPRPRPCMIPRP | -0.0196
RRIRMRPPRLPRPRPRPHVDPRP | 0.51

Sequence | shrunken log2 fold change
RRIRERPPRLPRPRPRPGTQPRP | -0.0335
RRIRIRPPRLPRPRPRPCEHPRP | -0.00165
RRIRVRPPRLPRPRPRPQLAPRP | 0.402
RRIRSRPPRLPRPRPRPAREPRP | 0.0982
RRIRPRPPRLPRPRPRPWTTPRP | -0.012
RRIRLRPPRLPRPRPRPHVCPRP | -0.247
RRIRTRPPRLPRPRPRPFCSPRP | 0.207
RRIRWRPPRLPRPRPRPDEEPRP | 0.215
RRIRCRPPRLPRPRPRPIGPPRP | 0.112
RRIRTRPPRLPRPRPRPQWTPRP | -1.27
RRIRLRPPRLPRPRPRPGFQPRP | -0.0314
RRIRGRPPRLPRPRPRPWFVPRP | -0.314
RRIRERPPRLPRPRPRPFRFPRP | -0.185
RRIRTRPPRLPRPRPRPDKCPRP | -0.229
RRIRLRPPRLPRPRPRPFNKPRP | -0.324
RRIRPRPPRLPRPRPRPSHDPRP | -0.339
RRIRSRPPRLPRPRPRPMFCPRP | -0.285
RRIRPRPPRLPRPRPRPGANPRP | 0.364
RRIRFRPPRLPRPRPRPNDLPRP | 0.00528
RRIRYRPPRLPRPRPRPEMNPRP | -0.0274
RRIRNRPPRLPRPRPRPFSVPRP | -0.678
RRIRTRPPRLPRPRPRPECIPRP | 0.0878
RRIRLRPPRLPRPRPRPERMPRP | -0.0208
RRIRSRPPRLPRPRPRPPDQPRP | 0.674
RRIRGRPPRLPRPRPRPVRCPRP | 0.814

Sequence | shrunken log2 fold change
RRIRCRPPRLPRPRPRPVDLPRP | -0.348
RRIRTRPPRLPRPRPRPSGSPRP | 0.204
RRIRYRPPRLPRPRPRPDHTPRP | -0.11
RRIRFRPPRLPRPRPRPNWQPRP | 0.0965
RRIRRRPPRLPRPRPRPQTLPRP | 0.101
RRIRIRPPRLPRPRPRPVIAPRP | -0.388
RRIRPRPPRLPRPRPRPVKGPRP | 0.203
RRIRARPPRLPRPRPRPNTNPRP | -0.0214
RRIRRRPPRLPRPRPRPGDHPRP | 0.0619
RRIRDRPPRLPRPRPRPSFMPRP | 0.147
RRIRDRPPRLPRPRPRPSWTPRP | -0.274
RRIRVRPPRLPRPRPRPSWIPRP | -0.476
RRIRERPPRLPRPRPRPTSEPRP | 0.0668
RRIRHRPPRLPRPRPRPVKLPRP | -0.438
RRIRGRPPRLPRPRPRPMPPPRP | 1.23
RRIRMRPPRLPRPRPRPHRSPRP | -0.0246
RRIRCRPPRLPRPRPRPDIWPRP | 0.116
RRIRRRPPRLPRPRPRPTSYPRP | -0.0452
RRIRGRPPRLPRPRPRPCGWPRP | 1.34
RRIRERPPRLPRPRPRPKIPPRP | -0.136
RRIRFRPPRLPRPRPRPQILPRP | -0.713
RRIRIRPPRLPRPRPRPTKFPRP | -0.164
RRIRIRPPRLPRPRPRPSLMPRP | -0.246
RRIRCRPPRLPRPRPRPNKDPRP | -0.534
RRIRGRPPRLPRPRPRPPHKPRP | 0.858
